From the DeepSol protein solubility set

Experiment: soluble on expression in E. coli; label from the status in PepcDB or PDB records

| Sequence | soluble on expression in E. coli |
| --- | --- |
| MRILFVAAGSPATVFALAPLATAARNAGHQVVMAANQDMGPVVTGVGLPAVATTDLPIRHFITTDREGRPEAIPSDPVAQARFTGRWFARMAASSLPRMLDFSRAWRPDLIVGGTMSYVAPLLALHLGVPHARQTWDAVDADGIHPGADAELRPELSELGLERLPAPDLFIDICPPSLRPANAAPARMMRHVATSRQCPLEPWMYTRDTRQRVLVTSGSRVAKESYDRNFDFLRGLAKDLVRWDVELIVAAPDTVAEALRAEVPQARVGWTPLDVVAPTCDLLVHHAGGVSTLTGLSAGVPQLLIPKGSVLEAPARRVADYGAAIALLPGEDSTEAIADSCQELQAKDTYARRAQDLSREISGMPLPATVVTALEQLAHHHHHH | soluble |
| SETILEQQRRYHEEKERLMDVMAKEMLTKKSTLRDQINSDHRTRAMQDRYMEVSGNLRDLYDDKDGLRKEELNAISGPNEFAEFYNRLKQIKEFHRKHPNEICVPMSVEFEELLKARENPSEEAQNLVEFTDEEGYGRYLDLHDCYLKYINLKASEKLDYITYLSIFDQLFDIPKERKNAEYKRYLEMLLEYLQDYTDRVKPLQDQNELFGKIQAEFEKKWENGTFPGWPKETSSALTHAGAHLDLSAFSSWEELASLGLDRLKSALLALGLKCGGTLEERAQRLFSTKGKSLESLDTSLFAKNPKSKGTKRDTERNKDIAFLEAQIYEYVEILGEQRHLTHENVQRKQARTGEEREEEEEEQISESESEDEENEIIYNPKNLPLGWDGKPIPYWLYKLHGLNINYNCEICGNYTYRGPKAFQRHFAEWRHAHGMRCLGIPNTAHFANVTQIEDAVSLWAKLKLQKASERWQPDTEEEYEDSSGNVVNKKTYEDLKRQGLL | soluble |
| MGSDKIHHHHHHMSPREVAAPHEVKARLYILDTNVLMHDPSALFRFEEHDILLPMIVLEELDQHKKGLSEQARNVRQVSRYLDEMLTDTADLDRGLVLPYAQGRLYFQTAAHQQALPEDLAGGKADHEILAVTLALQNRHPEKDVILVSKDINLRIKGRTLGIRVEDYQNDRALDDVDLLYTGAETLSADFWDLHSRDLDAWQESGRSYYKISGPAIQRWHSNQFIAINVEEGAPEDFAAIVREVRPEHAIIERITDYRSDRHAVWGILARNPEQNFALNLLMDPDIDFVTLLGHAGTGKTLLTLAAALHQIFEQKRYSEVIITRATVPVGDEIGFLPGTEEEKMLPWMGALEDNLEILARGSDEGGSWGRSATQDLINKRIRVKSMSFMRGRTFLEKFVIIDEAQNLTSKEMKTLITRAGPGTKIVCLGNIAQIDTPYLTETTSGLTYVVDRFKDWAYSGHITLRRGERSRLADFANDAL | not soluble |
| MSLSEEDLIENPLPENLLDKVIEGDAREVLKKIPDCSIHLMVTSPPYNVGKEYDEDMTLDEYLEFIEEIMKEVYRVLVWGGRACFNVANLGRKPYIPLHAYLIHLFEKIGFLIRGEIIWDKGEAVSGSSTAWGSWMSPVNPVLRDQHEYIIVMSKGDLKRRKPSDREAKSTITREEFLEFTRSVWKFPPESAKRVGHPAPFPEELPYRCIQLYTFKGDVVLDPFAGVGTTCVAAVKTGRHFVGIEINPEYVKKAEERVKDILSKPTLFEDHEGHHHHHH | soluble |
| EIAPLFTIENTVEEVEGMRPYTPLELAGRDIYVREGCYACHSQMIRTLRSDVERYGHYSLAAESMYDHPFQWGSKRTGPDLARIGGKYSDDWHVAHLEDPRALVPGSVMPGYAFLSATRLDTGHLPAALEALRRAGVPYTDAQIATAEQAAGWQADAEQAYESELQELFGDNVQLRDFDGRPGELTEMDALVAYLQVLGT | not soluble |
| GAMSSIFINREYLLPDYIPDELPHREDQIRKIASILAPLYREEKPNNIFIYGLTGTGKTAVVKFVLSKLHKKFLGKFKHVYINTRQIDTPYRVLADLLESLDVKVPFTGLSIAELYRRLVKAVRDYGSQVVIVLDEIDAFVKKYNDDILYKLSRINSEVNKSKISFIGITNDVKFVDLLDPRVKSSLSEEEIIFPPYNAEELEDILTKRAQMAFKPGVLPDNVIKLCAALAAREHGDARRALDLLRVSGEIAERMKDTKVKEEYVYMAKEEIERDRVRDIILTLPFHSKLVLMAVVSISSEENVVSTTGAVYETYLNICKKLGVEAVTQRRVSDIINELDMVGILTAKVVNRGRYGKTKEIGLAVDKNIIVRSLIESDSRFADLWS | soluble |
| MLEVKELVKTFGDFKAVDHVSFTIPDGKILGLIGQNGAGKTTTFRLILNFLTQDSGSVLWNGQPLNEKEYNIIGYLPEERGLYPKITIEDQLIYFASLRGKTKKEIEPKIDFWMEKFQVKGKKTDKVKSLSKGNQQKVQLIATLIHEPKLIILDEPFSGLDPVNAELLKDGIIELKNQGSCVIFSSHNMDNVEKICDHLVMLKNGRMVLDGQVHEIRQQFGRTKLFLESPLSVEEVAATAGVKEAHLRQDGVLEATLENAEVGKVLFDKATANGYIPMFNQQPPTLEEIFKMKVGGQDE | not soluble |
| MGSDKIHHHHHHMLTHSTNPRGGVVHAMQLSEALTALGHAVTLHAPDPKGTGFFRSPACGAACFPVPPALADMTALVEQRIADYIGHFEQADNRDFDVFHAHDGISGNALATLKSRGLIPSFVRTIHHIDQFEDPRLMVLQDRSIQRADAFLAVSAAWQAILRDSYGVDAKVVGNGVDNRRFSPAWSGEQTALRDRIGLHAGAVFLSIGGIEARKNTLGILDAFRQLRAVKPDAQLVIAGGVSLLDHRDYQEEFQSHLRALRDDAAAVHIIGAVSDDDMPNLYRLADALVFPSLKEGFGLVVLEAMASGVPAIVPSIAPFIDYLSGDDALWCDPLHSASIAEAMALALVPEIRERIIPRGLEVASRFTWRRVAEAHLSTYATLKEAAHA | not soluble |
| MGSDKIHHHHHHMIMNNHRMLPDQDAWEPWSPAELSRRLSGISRPWCIVGGWALDLWHGSTMREHDDLEFTVLREDLEIFRRELSEMEFYTVNDGVLERLPPDRQPASEIFQIWCFDRTAKCWRVDMMIEPGTDDTWAYKRNPEITRPRTDMVALTADGIPYLNPSAVLLFKAKHRRPKDEQDFVNAHPKLLLSERRWLRNCLELLHPGHEWAQAL | not soluble |
| MFKIKTIESLSDLTQLKKAYFDSSIVPLDGMWHFGFAPMAKHFGFYVNKNLVGFCCVNDDGYLLQYYLQPEFQLCSQELFTLISQQNSSVIGEVKGAFVSTAELNYQALCLDNSATFKVNSLMYQHNTKLADRNLEMIDMQIAGTEQLTAFVTFAAANIGAPEQWLTQYYGNLIERKELFGYWHKGKLLAAGECRLFDQYQTEYADLGMIVAQSNRGQGIAKKVLTFLTKHAATQGLTSICSTESNNVAAQKAIAHAGFTSAHRIVQFEFKHA | soluble |
| TNAKASKRVYITFTGYDKKPSIDNLKKLDMSITSNPSKCTHLIAPRILRTSKFLCSIPYGPCVVTMDWINSCLKTHEIVDEEPYLLNDPEKELELGCTLESALKRARAQGPSLLEDYVVYLTSKTVAPENVPAVISIVKSNGGVCSTLNVYNKRLARHLEDGNVVLITCNEDSHIWTNFLDNASQNKTIFLQNYDWLIKTVLRQEIDVNDRIADEFARAV | soluble |
| RNHWVSQYSSVKQEKNEKWQRHWREILGEDTEDLPPYRYDYGLYSGIWQANETLREQCFAALTHGNSVYERVKAFQKMTTHEHNTDDQILLSKLAQLENEIIQALEQHSQKNVSIETGSGTLCKESKHNVYRHENGPTEEQLYNSINLQHDLDRELRNIIYDRLGDDGLDEYFFLRAPLEELTENETAINWMLWGLVSDHFDVDPYQTALELNLMNAEPRWGQDERFVVVTTAA | not soluble |
| MGSDKIHHHHHHVKKSESLPVLIVTGLSGAGKSTVLNVFEDLRFFTIDGLPVGVVADLLEHLARDAMGRYRGVVLGMDLRQFDFLDEFEGALMRLEKMGVSPRIIYLEADSDTLVRRFATTRRPHPLEGGDLGLEAAVEHERNLLAPVRERADLILDTSEFSIHDLRRIVQKKWSSLGGSLRSLRVNLITFGFKYGVPSDADMVFDLRFLPNPYFDAKLKALSGKDPEIQQFVLGCEQGKTFFKRFLDFLLFLLPQYEAEGRYRITLAIGCTGGRHRSVSTAEALRDALKKSDYAVSLEHRHIDLG | not soluble |
| MSLTQFKKFAEHISSCFSPSAIQEFSRKSKIVKRKRMFTIDHLLWLCVWQEKNMGDSSLIDMCASLWQQFGIKISPEGLNQRFNEKSTAFLKLLFHSILEKQTPDLAAIQHAYSTHFNRIRILDSTSFQLPNTFSDKYPGNGCLMQLKSAEGHHHHHH | not soluble |
| MAEHDFETISSETLHTGAIFALRRDQVRMPGGGIVTREVVEHFGAVAIVAMDDNGNIPMVYQYRHTYGRRLWELPAGLLDVAGEPPHLTAARELREEVGLQASTWQVLVDLDTAPGFSDESVRVYLATGLREVGRPEAHHEEADMTMGWYPIAEAARRVLRGEIVNSIAIAGVLAVHAVTTGFAQPRPLDTEWIDRPTAFAARRAER | soluble |
| MGHHHHHHSHMGRCYNNIVIDASIEAVWQQIGNFHDMSWAKGVITSLVKVGPASGTEVGAKRILNDAIHETLVSLDSSNYTFTYSIDDGPDAIAKSAVDNYLGMVNLSESSTGVLVEWSSSFTSDNEKAVTEFCDP | not soluble |
| EFSMEDLIPLVNRLQDAFSAIGQNADLDLPQIAVVGGQSAGKSSVLENFVGRDFLPRGSGIVTRRPLVLQLVNATTEYAEFLHCKGKKFTDFEEVRLEIEAETDRVTGTNKGISPVPINLRVYSPHVLNLTLVDLPGMTKVPVGDQPPDIEFQIRDMLMQFVTKENCLILAVSPANSDLANSDALKVAKEVDPQGQRTIGVITKLDLMDEGTDARDVLENKLLPLRRGYIGVVNRSQKDIDGKKDITAALAAERKFFLSHPSYRHLADRMGTPYLQKVLNQQLTNHIRDTLPGLRNKLQSQLLSIEKEVEEYKNFRPDKHGTDSRVDEMLRMYHALKEALSIIGNIN | soluble |
| MAHHHHHHMLSKGNVKNLATDEINEMIDNSLKSGDTDEAPYFLQQNNIYWETGHRTYIPFFHFMIHKYTTKIIDDQIRKFTESVKSVHHTPYVFHKDGYFRSYYGDPDINMVFNLKKNTNFIFNSTGTHNSYSLLCNNNTYDKSTHIFDQVLMSAFKLDLKSVLENNV | not soluble |
| GSHMQGQSPIKDQEMKELIRRSQEGDQEARDEIIEKNMRLVWSVVQRFLNRGYEADDLFQIGCIGLLKSVDKFDLSYDVKFSTYAVPMIIGEIQRFLRDDGTVKVSRSLKEMGNKIRKAKDELSKTRGRAPTVTEIADHLGISPEDVVLAQEAVRLPTSIHETVYENDGDPITLLDQIADADEASWFDKIALKKAIEELDERERLIVYLRYYKDQTQSEVASRLGISQVQMSRLEKKILQHIK | soluble |
| MGSDKIHHHHHHMRIALVTNTFLPLTGGGEFVVHHLGNQWSMQGHDVCVFNSLTAEVAHPEALYKVMRYKIMRGATRFGYHRFPWVNVSTRSLNRQINYFNPDFVSGHFSIPVALYLDNLKPKRIWSITSHGSDIVRNDVNSQRDQYDIDNKLANSLNNASSVIAISNSAKANLLDIGVKPSLIRVIPNGVELNRFKTKANTNIREMFNIPEHKKLVLTVGRNSLVKNLGLGINAVAEIAKSRSDIHYLIVGGGTSQLNETIINRGLRDTVTTCENLAGESLVAAYQQSDIFLSTSNYECCPLVILEAMASGLPIVATQVAGNVDLIDNEVNGLLVGRNNHMHIVNAITMLIADKRLCHSISTTNYDKVSDYSWDTVSRSYLELLQ | not soluble |
| MGSDKIHHHHHHMGNFHTMLDALLEDQEEAVLATIVQVEGSAYRKAGASMLFKKKGRRIGLLSGGCVEEDVFQRISALGDQLTSTLIPYDMRSEDDLSWGMGAGCNGIIHVHAERITQEKRRHYEKVRDCLHSGKAVTSVIKIESSHYLFLTENGHFGNWPDAPLQDIQRTVSTLHLPHFDQTTNMFIQRIEPKPRLILFGAGPDNVPLANLAADTGFSVIVTDWRPAYCTSSLFPYAYYLITAFPEQMLSEFQFFPHDAAVVATHHYQHDQTIINFLFSQNLHYIGLLGSANRTKRLLSGKHPPSHFYSPVGLKIGAEGPEEIAVSVVAEIIQTRKRVAVV | not soluble |
